Marks after values point to notes of the source that are not given here.
Tests used:
[1] = Stability (RCP by radio-HPLC) of purified scale-up 64Cu-DOTATATE reactions; type: physicochemical; settings: for RCP: Sep-Pak purified material
Description: (§1) HPLC was performed using an Agilent 1200 series system equipped with a variable wavelength UV-Vis detector followed in-line with a sodium iodide detector (Bioscan B-FC-200P). A Phenomenex Luna C18 column (150 mm×.4.6 mm, 5 μm) was used. The mobile phase was made of Solvent A and Solvent B. Solvent A was a 0.1% trifluoroacetic acid (TFA) in HRW, and solvent B was 0.1% TFA acid in acetonitrile (ACN). The gradient was (i) 15-40% Solvent B in A for 10 min, 40% Solvent B in A from 10 to 15 min, 15% Solvent B in A from 15-16 min, and 15% Solvent B in Solvent A from 16-19 min. The flow rate was 1.2 mL/min, and UV detection was monitored at 220 nm.
Radiolabeling reactions followed the general procedure described herein. A solution of ^64Cu in 0.05 M HCl was mixed with a solution of DOTATATE in sodium acetate/gentisic acid buffer. The reaction mixture was heated to 30° C. for 5 min and then purified via a C-18 solid phase extraction cartridge. The purified ^64Cu-DOTATATE was collected in 2 mL of 50% EtOH and subsequently diluted with an ascorbic acid solution. The final product was assayed for activity and the radiochemical purity (RCP) was evaluated via radio-HPLC analysis. Characterization was performed against non-radioactive DOTATATE (tR=6.3 min) and Cu-DOTATATE (tR=7.3 min) standards.
Representative reactions for 100 mCi-7000 mCi batch sizes and results are outlined in Table 9. […] The remainder of the activity eluted (tR=6.2-7.2 min) are attributed to degradation products due to radiolysis.

[2] = Stability of 64Cu-DOTATATE in final dose matrix (NaOAsc, EtOH, GA) by HPLC; type: physicochemical
Description: as §1
The effect of ethanol (EtOH) and gentisic acid (GA) content in the final dose matrix on chemical stability of ^64Cu-dotatate was assessed. In these experiments, 500 mCi reactions were performed using the general procedure outlined in Example 2 and the ^64Cu-DOTATATE product was eluted from the Sep-Pak with 2 mL of 50% EtOH (aq) into 5 mL of 50 mg/mL NaOAsc buffer to serve as the purified ^64Cu-DOTATATE stock solution. From the ^64Cu-DOTATATE stock, 1 mL aliquots were transferred to vials containing the following solutions:
In those samples, the decrease in ^64Cu-DOTATATE correlated with an increase in free ^64Cu and two unknown radioimpurities at tR=6.6 min and 7.1 min.

[3] = molecular target: somatostatin receptors, subtype 2 receptors (SSTR2) (Homo sapiens, UniProt P30874); settings: cited from earlier work
Chain of somatostatin receptors, subtype 2 receptors (SSTR2) (P30874 whole entry): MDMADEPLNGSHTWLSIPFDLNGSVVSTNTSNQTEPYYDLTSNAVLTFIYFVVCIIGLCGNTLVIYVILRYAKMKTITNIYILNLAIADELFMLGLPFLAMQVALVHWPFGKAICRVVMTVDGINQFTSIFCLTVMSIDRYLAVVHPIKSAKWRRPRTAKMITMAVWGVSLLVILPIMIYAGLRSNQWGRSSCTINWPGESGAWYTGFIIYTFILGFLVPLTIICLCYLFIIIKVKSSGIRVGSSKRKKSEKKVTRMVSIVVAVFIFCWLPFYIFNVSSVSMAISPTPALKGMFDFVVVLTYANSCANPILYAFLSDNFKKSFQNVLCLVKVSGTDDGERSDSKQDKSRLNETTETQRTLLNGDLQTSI

[4] = reaction 120.6 mCi 64Cu at TOS, 200 μg DOTATATE
[5] = reaction 481 mCi 64Cu at TOS, 1000 μg DOTATATE, average of two samples
[6] = reaction 1190 mCi 64Cu at TOS, 2000 μg DOTATATE, average of two samples
[7] = reaction 2402 mCi 64Cu at TOS, 4000 μg DOTATATE, average of two samples
[8] = reaction 7297 mCi 64Cu at TOS, 4378 μg DOTATATE

Compound: C[C@@H](O)[C@H](NC(=O)[C@@H]1CSSC[C@H](NC(=O)[C@@H](Cc2ccccc2)NC(=O)CN2CCN3CCN(CC(=O)O)CCN(CC2)CC(=O)[O][64Cu][O]C(=O)C3)C(=O)N[C@@H](Cc2ccc(O)cc2)C(=O)N[C@H](Cc2c[nH]c3ccccc23)C(=O)N[C@@H](CCCCN)C(=O)N[C@@H]([C@@H](C)O)C(=O)N1)C(=O)O [^64Cu-DOTATATE, copper (Cu64)-N-[(4,7,10-Tricarboxymethyl-1,4,7,10-tetraazacyclododec-1-yl)acetyl]-Dphenylalanyl-L-cysteinyl-L-tyrosyl-D-tryptophanyl-L-lysyl-L-threoninyl-L-cysteinyl-L-threonine-cyclic (2-7) disulfide]
- period over which stable (HPLC) ([1]; purified reaction solutions): at least 47 h
- RCP Day 1 (+24 hr) [1, 4]: 97.7%^
- RCP Day 2 (+47 hr) [1, 4]: 95.0%^
- RCP [1, 4]: 98.9%^
- RCP [1, 5]: 99.4%^c
- RCP Day 1 (+24 hr) [1, 5]: 99.7%^c
- RCP Day 2 (+47 hr) [1, 5]: 99.4%^c
- RCP [1, 6]: 99.6%^c
- RCP Day 1 (+24 hr) [1, 6]: 99.4%^c
- RCP Day 2 (+47 hr) [1, 6]: 99.7%^c
- RCP [1, 7]: 99.2%^c
- RCP Day 1 (+24 hr) [1, 7]: 99.4%^c
- RCP Day 2 (+47 hr) [1, 7]: 99.3%^c
- RCP Day 2 (+47 hr) [1, 8]: 95%
- RCP [1, 8]: 95%
- purity, chemically stable for two days ([2]; sodium ascorbate 45-122 mg/mL, ethanol 1.6%-5.2%, activity concentration 3.6-16 mCi/mL at time of preparation): greater than 95%
- purity, remained stable ([2]; sodium ascorbate up to 98 mg/mL, ethanol up to 9.7%, activity concentration approximately 18 mCi/mL at time of preparation): greater than 90%
- affinity for somatostatin receptor subtypes [3]: highest affinity for subtype 2 receptors (SSTR2)

— US12102696B2, “Radiolabeling and formulation for scale up of 64Cu-DOTATATE” (Curium US LLC, priority 2020, dated 2024)
